# Laboratory results reported in patent US7897568B2, “Compositions for treatment of cancer” (priority 2006, dated 2011).
# Where no end group is shown, it is not given here.
# B1: ANK peptide KGNSALHVASQHGHLGCIQTLVRYGANVTMQNHG (SEQ ID NO:1) (peptide)
# peptide: Ac-KGNSALHVASQHGHLGCIQTLVRYGANVTMQNHG-NH2
# notes: For SPR it was immobilised on a CM5 chip by ligand thiol coupling; also called ankyrin repeat-like peptide
# Columns and labels:
# MCF7-Neo cells = assay: Microinjection of ANK peptide then nocodazole, mitotic arrest/apoptosis count; assay type: cell-based; settings: cells without ANK injection, 0.5 μM nocodazole for 24 hours
# Method: ANK peptide interference with SNCG-BubR1 association in vivo was examined in a stable breast cancer cell line MCF7 expressing SNCG (MCF7-SNCG) and a control SNCG negative cell line (MCF7-Neo). […] Significant numbers of cells survived after treatment with the ANK peptide by microinjection in both cell lines. After microinjection, cells were treated with 0.5 μM nocodazole for 24 hours and the fraction of mitotically arrested cells was counted.
# MCF7-SNCG and MCF-Neo were grown to 80% confluence, split with trypsin and seeded on a 22 mm glass coverslip treated with human fibronectin ([…]) into 60 mm diameter dishes containing cell maintenance medium for 24 hours and utilized for the experiments. In initial experiments ANK peptide (5, 10 or 100 μM) was microinjected. In all further experiment to date, ANK peptide (10 μM), together with goat IgG (1 mg/ml) and fluoroscein isothiocyanate (FITC, 5 mg/ml; Molecular Probes) into the MCF7-SNCG or MCF7-Neo cells under a 40× magnification of phase contrast microscope (Carl Zeiss Inc.) using a pressure injection system (Femtojet, Eppendorf). To exclude the possibility that microinjection might affect cell cycle and proliferation, MCF7-Neo and MCF7-SNCG were microinjected with goat IgG as a control. Injections were done at a constant flow setup by varying the injection pressure Pc between 40-70 units. The microscope stage was kept at 37° C. using thermal control device (Tempcontrol-37-2 Digital). Approximately 25-30 cells were microinjected in each experiment (n=3). Cells were quickly incubated to revive. […]
# For the immunofluorescence experiments, cells were fixed in 0.5% buffered paraformaldehyde for 8 minutes at room temperature. […] Cells were scored by identifying cells containing Alexa Fluor 488 excited at 488 nm, and the emission measured at 500-535 nm; DAPI was excited at 345 nm and the emission was measured at 445 nm. […] Mitotic index was determined as described by Gupta et al. (Oncogene 2003 22:7593-7599) and Inaba et al. Breast Cancer Res. Treat. […]
# SNCG = SNCG (Homo sapiens, UniProt O76070); assay: Co-immunoprecipitation of EGFP-ANK deletion peptides with anti-SNCG antibody; assay type: binding; set-up: expressed in transfected cells; host or cells: MCF7-SNCG (MCF7 stably expressing SNCG); settings: MCF7-neo and MCF7-SNCG clones transfected with pEGFP-ANK deletion peptide plasmids
# [1] = biological target: SNCG expressed in cells (MCF7-SNCG, T47D, or COS7 transfected with pCI-SNCG) (UniProt O76070 1-127, limits assumed); assay: cell-based or functional assay
# [2] = biological target: T1, glutathione S-transferase (GST)-SNCG fusion protein (human, UniProt O76070 1-127); assay: ITC, ANK peptide titrated into GST-SNCG, sequential binding site model, first binding site
# T1 construct: Expressed in E. coli BL21 (DE3), eluted with reduced glutathione; Used as analyte in SPR, in the cell in ITC and as bait in the GST pull-down; not shown: glutathione S-transferase tag encoded by the pGEX-4T-3 vector (Amersham Biosciences); vector linker with thrombin site between GST and the BamH1 site
# [3] = biological target: T1, glutathione S-transferase (GST)-SNCG …; assay: SPR, ANK peptide immobilised, GST-SNCG analyte, global fit, two-phase reaction (conformation change) model, kd2
# [4] = biological target: T1, glutathione S-transferase (GST)-SNCG …; assay: SPR, ANK peptide immobilised, GST-SNCG analyte, apparent overall Kd
# [5] = biological target: T2, glutathione S-transferase (GST) (UniProt P08515 1-218 = GST); assay: SPR (BIACORE 3000), ANK peptide immobilised, GST as analyte
# T2 construct: Control for GST-SNCG in SPR
# [6] = biological target: T1, glutathione S-transferase (GST)-SNCG …; assay: SPR, ANK peptide immobilised, GST-SNCG analyte, global fit, two-phase reaction (conformation change) model, kd1
# [7] = biological target: T3, synuclein-gamma (SNCG), recombinant, released from GST-SNCG by thrombin (human, UniProt O76070 1-127); assay: intrinsic tyrosine fluorescence of 30 µM SNCG titrated with ANK peptide
# T3 construct: 15N-labelled for NMR; also called native SNCG; Breast Cancer Specific Gene 1
# T3 sequence (O76070 whole entry): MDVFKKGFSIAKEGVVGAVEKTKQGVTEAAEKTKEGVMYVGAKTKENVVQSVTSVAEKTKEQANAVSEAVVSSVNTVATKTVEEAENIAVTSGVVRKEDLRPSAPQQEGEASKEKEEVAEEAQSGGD
# T1 sequence (O76070 whole entry, the tested form may be a part): as the sequence (O76070 whole entry) above
# Sequence of SNCG expressed in cells (MCF7-SNCG, T47D, or COS7 transfected with pCI-SNCG) (O76070 whole entry, stated change not applied, the tested form may be a part): as the sequence (O76070 whole entry) above
# Sequence of SNCG (O76070 whole entry): as above
# T2 sequence (P08515 whole entry): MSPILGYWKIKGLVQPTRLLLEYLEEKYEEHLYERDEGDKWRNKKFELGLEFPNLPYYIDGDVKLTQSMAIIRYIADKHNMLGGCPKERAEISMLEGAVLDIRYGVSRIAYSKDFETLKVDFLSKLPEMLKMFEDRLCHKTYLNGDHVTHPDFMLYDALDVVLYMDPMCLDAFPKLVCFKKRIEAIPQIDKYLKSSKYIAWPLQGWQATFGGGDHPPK
molecule,measurement,setting,value
"COC(=O)Nc1nc2ccc(C(=O)c3cccs3)cc2[nH]1 [nocodazole, reference compound]",degree of mitotic arrest in MCF7-Neo cells as compared to MCF7-SNCG cells,MCF7-Neo cells,significantly higher degree of mitotic arrest
"EGFP-ANK deletion peptide P8: EGFP fusion of deletion peptide P8 GANVTMQN, expressed from pEGFP-C2 plasmid in cells (not fully specified (N-terminus); also: EGFP fusion protein (recombinant))",interaction with SNCG by co-IP,SNCG,identified to interact
"EGFP-ANK deletion peptide P12: EGFP fusion of deletion peptide P12 GNSALHVASQHG, expressed from pEGFP-C2 plasmid in cells (not fully specified (N-terminus); also: EGFP fusion protein (recombinant))",interaction with SNCG by co-IP,SNCG,identified to interact
"KGNSALHVASQHGHLGCIQTLVRYGANVTMQNHG (other, not shown: large carriers, not fully specified (N-terminus); also: EGFP fusion protein (recombinant)) [enhanced green fluorescent protein (EGFP)-ANK fusion protein]",apoptotic cell populations (DAPI staining) after paclitaxel,[1],5 fold
same,"apoptotic/dead cell population, flow cytometric cell cycle analysis after 0.5 µM paclitaxel, MCF7-SNCG cells",[1],~4 fold
same,"positive phosphorylated histones (anti-phospho-H3 staining, flow cytometry), MCF7-SNCG cells",[1],3.5 fold
B1,Kd,[2],70 µM
same,ΔH,[2],2.17 kcal/mol
same,koff,[3],0.000802 s⁻¹
same,Kd,[4],73.4 µM
same,binding result,[5],no binding
same,koff,[6],0.014 s⁻¹
same,Kd,[7],~100 µM
